{"source": "IntAct's records for PubMed 19913487", "parents": {"B1": {"name": "ATP-dependent RNA helicase DDX3X (Homo sapiens), O00571 (parent)", "chain": "MSHVAVENALGLDQQFAGLDLNSSDNQSGGSTASKGRYIPPHLRNREATKGFYDKDSSGWSSSKDKDAYSSFGSRSDSRGKSSFFSDRGSGSRGRFDDRGRSDYDGIGSRGDRSGFGKFERGGNSRWCDKSDEDDWSKPLPPSERLEQELFSGGNTGINFEKYDDIPVEATGNNCPPHIESFSDVEMGEIIMGNIELTRYTRPTPVQKHAIPIIKEKRDLMACAQTGSGKTAAFLLPILSQIYSDGPGEALRAMKENGRYGRRKQYPISLVLAPTRELAVQIYEEARKFSYRSRVRPCVVYGGADIGQQIRDLERGCHLLVATPGRLVDMMERGKIGLDFCKYLVLDEADRMLDMGFEPQIRRIVEQDTMPPKGVRHTMMFSATFPKEIQMLARDFLDEYIFLAVGRVGSTSENITQKVVWVEESDKRSFLLDLLNATGKDSLTLVFVETKKGADSLEDFLYHEGYACTSIHGDRSQRDREEALHQFRSGKSPILVATAVAARGLDISNVKHVINFDLPSDIEEYVHRIGRTGRVGNLGLATSFFNERNINITKDLLDLLVEAKQEVPSWLENMAYEHHYKGSSRGRSKSSRFSGGFGARDYRQSSGASSSSFSSSRASSSRSGGGGHGSSRGFGGGGYGGFYNSDGYGGNYNSQGVDWWGN"}}}
{"variants_of": "B1", "conditions": "with pg044_vaccw OPG044, P68466"}
{"variant": "F84A;F85A", "effect of a mutation on the interaction": "disrupting interaction"}
